# Laboratory results: the supplement of paper PMC9112550, “Optimization of the antimicrobial peptide Bac7 by deep mutational scanning” (BMC Biology, 2022)
# Test system: Escherichia coli TOP10
# Test: shrunken log2 fold change of peptide-encoding DNA abundance (4.5 h post-induction vs induction); higher = less antimicrobial activity (less host growth inhibition)
# Details: time post-induction: 4.5 h; library: site-saturation at positions 5, 18, 19, 20
# 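Also: peptides expressed intracellularly from a pBAD plasmid library in pooled LB shake-flask culture, induced with 0.3% L-arabinose, DNA abundance read by NGS, three biological replicates, DESeq2 with apeglm shrinkage.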
row,Sequence,shrunken log2 fold change
1,RRIRKRPPRLPRPRPRPQPFPRP,0.18
2,RRIRNRPPRLPRPRPRPNDEPRP,-0.227
3,RRIRRRPPRLPRPRPRPITLPRP,-0.0936
4,RRIRARPPRLPRPRPRPIMVPRP,-0.146
5,RRIRSRPPRLPRPRPRPATDPRP,0.157
6,RRIRYRPPRLPRPRPRPLICPRP,-0.255
7,RRIRNRPPRLPRPRPRPATPPRP,0.537
8,RRIRDRPPRLPRPRPRPNHMPRP,-0.776
9,RRIRRRPPRLPRPRPRPIGTPRP,0.00964
10,RRIRARPPRLPRPRPRPTNNPRP,0.00693
11,RRIRRRPPRLPRPRPRPCGKPRP,0.254
12,RRIRARPPRLPRPRPRPLDVPRP,-0.07
13,RRIRQRPPRLPRPRPRPAASPRP,0.129
14,RRIRNRPPRLPRPRPRPKFIPRP,-0.602
15,RRIRSRPPRLPRPRPRPTQTPRP,1.09
16,RRIRGRPPRLPRPRPRPTGQPRP,0.793
17,RRIRKRPPRLPRPRPRPHGWPRP,0.865
18,RRIRCRPPRLPRPRPRPQHCPRP,-0.287
19,RRIRLRPPRLPRPRPRPVISPRP,-0.266
20,RRIRYRPPRLPRPRPRPGVIPRP,-0.297
21,RRIRMRPPRLPRPRPRPSDKPRP,0.0839
22,RRIRWRPPRLPRPRPRPLCYPRP,0.0105

row,Sequence,shrunken log2 fold change
1,RRIRNRPPRLPRPRPRPFNKPRP,-0.72
2,RRIRERPPRLPRPRPRPVVIPRP,-0.251
3,RRIRFRPPRLPRPRPRPGLMPRP,-0.125
4,RRIRYRPPRLPRPRPRPGQGPRP,-0.0311
5,RRIRTRPPRLPRPRPRPMGGPRP,-0.0576
6,RRIRMRPPRLPRPRPRPDVPPRP,0.323
7,RRIRGRPPRLPRPRPRPRCVPRP,0.689
8,RRIRWRPPRLPRPRPRPYVKPRP,-0.436
9,RRIRPRPPRLPRPRPRPCCSPRP,-0.556
10,RRIRDRPPRLPRPRPRPISSPRP,0.00884
11,RRIRYRPPRLPRPRPRPYEPPRP,-0.248
12,RRIRSRPPRLPRPRPRPRFVPRP,0.129
13,RRIRPRPPRLPRPRPRPGGAPRP,0.47
14,RRIRERPPRLPRPRPRPINWPRP,-0.169
15,RRIRLRPPRLPRPRPRPTAEPRP,0.16
16,RRIRERPPRLPRPRPRPMFEPRP,0.000206
17,RRIRQRPPRLPRPRPRPFEMPRP,-0.0512
18,RRIRSRPPRLPRPRPRPAKVPRP,-0.0898
19,RRIRGRPPRLPRPRPRPCADPRP,1.48
20,RRIRIRPPRLPRPRPRPPILPRP,-0.0859
21,RRIRSRPPRLPRPRPRPKFVPRP,-0.0276
22,RRIRGRPPRLPRPRPRPTIAPRP,0.895

row,Sequence,shrunken log2 fold change
1,RRIRWRPPRLPRPRPRPNAGPRP,-0.00207
2,RRIRPRPPRLPRPRPRPSVVPRP,-0.162
3,RRIRCRPPRLPRPRPRPWHYPRP,-0.51
4,RRIRQRPPRLPRPRPRPKSHPRP,-0.0261
5,RRIRYRPPRLPRPRPRPVREPRP,0.484
6,RRIRGRPPRLPRPRPRPRKLPRP,0.86
7,RRIRVRPPRLPRPRPRPELAPRP,0.659
8,RRIRMRPPRLPRPRPRPDRFPRP,0.207
9,RRIRNRPPRLPRPRPRPVHAPRP,0.0862
10,RRIRCRPPRLPRPRPRPLQWPRP,-0.0609
11,RRIRTRPPRLPRPRPRPIRVPRP,-0.519
12,RRIRKRPPRLPRPRPRPALVPRP,0.623
13,RRIRPRPPRLPRPRPRPWWVPRP,0.0961
14,RRIRGRPPRLPRPRPRPAHRPRP,0.224
15,RRIRARPPRLPRPRPRPIEPPRP,0.0525
16,RRIRKRPPRLPRPRPRPNHYPRP,-0.441
17,RRIRKRPPRLPRPRPRPYVQPRP,-0.332
18,RRIRMRPPRLPRPRPRPYCSPRP,-0.122
19,RRIRFRPPRLPRPRPRPLVHPRP,-0.298
20,RRIRERPPRLPRPRPRPDYFPRP,-0.249
21,RRIRSRPPRLPRPRPRPDEAPRP,-0.104
22,RRIRMRPPRLPRPRPRPWTWPRP,-0.0795

row,Sequence,shrunken log2 fold change
1,RRIRCRPPRLPRPRPRPWKKPRP,-0.0238
2,RRIRTRPPRLPRPRPRPLTPPRP,-0.0473
3,RRIRARPPRLPRPRPRPYWAPRP,-0.106
4,RRIRVRPPRLPRPRPRPVFAPRP,0.217
5,RRIRSRPPRLPRPRPRPGSMPRP,-0.201
6,RRIRGRPPRLPRPRPRPDHFPRP,-0.31
7,RRIRMRPPRLPRPRPRPLQEPRP,2.68
8,RRIRIRPPRLPRPRPRPYCVPRP,-0.207
9,RRIRRRPPRLPRPRPRPMCQPRP,0.254
10,RRIRRRPPRLPRPRPRPTLHPRP,0.534
11,RRIRDRPPRLPRPRPRPDTQPRP,0.419
12,RRIRCRPPRLPRPRPRPHYDPRP,-0.687
13,RRIRLRPPRLPRPRPRPEHKPRP,-0.0822
14,RRIRMRPPRLPRPRPRPAGDPRP,0.882
15,RRIRIRPPRLPRPRPRPMPPPRP,-0.0836
16,RRIRQRPPRLPRPRPRPEMRPRP,1.13
17,RRIRQRPPRLPRPRPRPIGIPRP,-0.245
18,RRIRTRPPRLPRPRPRPWCIPRP,-0.19
19,RRIRVRPPRLPRPRPRPQNRPRP,0.112
20,RRIRGRPPRLPRPRPRPTKCPRP,0.684
21,RRIRLRPPRLPRPRPRPRWGPRP,0.175
22,RRIRRRPPRLPRPRPRPTESPRP,0.121

row,Sequence,shrunken log2 fold change
1,RRIRRRPPRLPRPRPRPWHAPRP,0.279
2,RRIRSRPPRLPRPRPRPLHQPRP,-0.248
3,RRIRRRPPRLPRPRPRPWMEPRP,-0.137
4,RRIRKRPPRLPRPRPRPLIKPRP,-0.338
5,RRIRTRPPRLPRPRPRPFMNPRP,-0.787
6,RRIRERPPRLPRPRPRPPIMPRP,-0.314
7,RRIRTRPPRLPRPRPRPFNFPRP,-0.617
8,RRIRYRPPRLPRPRPRPGDHPRP,0.0294
9,RRIRTRPPRLPRPRPRPPLKPRP,-0.0323
10,RRIRKRPPRLPRPRPRPHWVPRP,-0.0562
11,RRIRERPPRLPRPRPRPHRRPRP,0.0407
12,RRIRYRPPRLPRPRPRPKYRPRP,-0.0133
13,RRIRERPPRLPRPRPRPWIRPRP,-0.667
14,RRIRRRPPRLPRPRPRPDHMPRP,-0.0178
15,RRIRKRPPRLPRPRPRPWFPPRP,-0.0488
16,RRIRWRPPRLPRPRPRPREAPRP,0.185
17,RRIRQRPPRLPRPRPRPTPSPRP,0.507
18,RRIRWRPPRLPRPRPRPVCDPRP,0.534
19,RRIRMRPPRLPRPRPRPNTFPRP,0.105
20,RRIRSRPPRLPRPRPRPAAMPRP,0.852
21,RRIRFRPPRLPRPRPRPQNWPRP,-0.148
